Patent US20150231240A1, “ANTI-C16ORF54 ANTIBODIES AND METHODS OF USE THEREOF” (priority 2012, published 2015)

Assays:
human C16orf54 [1] = target: T1, human C16orf54 (human, UniProt Q6UWD8 1-224); test: flow cytometry, WSU-DLCL2 lymphoma cells (endogenous C16orf54), 1 repeat
T1 construct: also called huC16orf54; hC16orf54
T1 sequence: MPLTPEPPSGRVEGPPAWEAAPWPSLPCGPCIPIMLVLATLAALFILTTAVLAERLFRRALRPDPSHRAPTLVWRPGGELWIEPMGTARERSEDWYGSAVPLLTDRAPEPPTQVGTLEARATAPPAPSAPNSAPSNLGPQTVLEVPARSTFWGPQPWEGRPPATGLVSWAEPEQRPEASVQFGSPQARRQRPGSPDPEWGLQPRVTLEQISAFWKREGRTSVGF

human C16orf54 [2] = target: T1, human C16orf54; test: flow cytometry, WSU-FSCCL lymphoma cells (endogenous C16orf54), 3 repeats
human C16orf54 [3] = target: T1, human C16orf54; test: flow cytometry titration, KG1 cells (endogenous human C16orf54)

B1: R29-7-1C (antibody, V domains shown)
VH: DVQLQESGPGLVKPSQSLSLTCTVTGYSITSDYAWNWIRQFPGNKLEWMGYISYSGSIRYNPSLKSRISITRDTSKNQFFLQLNSVTTEDTATYYCAREKYDNYYYAMDYWGQGTSVTVSS
VL: DIVMSQSPSSLAVSVGEKVTLSCKSSQNLLYSTNQKNYLAWYQQKPGQSPKLLIYWASTRESGVPDRFTGSGSGTDFTLTISSVKAEDLAVYYCQQYYSYRTFGGGTKLEIK
notes: Murine monoclonal IgG2a from a hybridoma
Human C16orf54 [1]
  Average MFI fold change relative to isotype control: 9.2 fold
Human C16orf54 [2]
  Average MFI fold change relative to isotype control: 13.7 fold
Human C16orf54 [3]
  EC50: 0.3 nM
